Target: RuvAMge;RecUMge (Mycoplasma genitalium G37 (ATCC …, UniProt Q49424;Q49422 1-205;1-166, |))
Test: EMSA; 0.5 uM RecUMge preincubated, then RuvAMge; all RecU-HJ complexes shifted at 4 uM; 20 mM Tris-HCl pH 7.5, 1 mM DTT, 1 mM EDTA, 12.3 nM DNA, 10 ul, on ice 10 min; 8% PAGE in 0.5x TBE; +/- 10 mM Mg2+

B1: HJ 1.1 (structured_DNA)
DNA 1: GCGACGTGATCACCAGATGATTGCTAGGCATGCTTTCCGCAAGAGAAGC
DNA 2: GGCTTCTCTTGCGGAAAGCATGCCTAGCAATCCTGTCAGCTGCATGGAAC
DNA 3: GGTTCCATGCAGCTGACAGGATTGCTAGGCTCAAGGCGAACTGCTAACGG
DNA 4: ACCGTTAGCAGTTCGCCTTGAGCCTAGCAATCATCTGGTGATCACGTCGC
- binding result: binds
